Source: publication PMC4972253

What was measured:
[1] = target: JRFL NFL trimer (Wt, unfixed) (HIV-1, subtype B, strain JRFL); test: native gel or EMSA
[2] = target: BG505 NFL trimer (Wt, unfixed) (HIV-1, subtype A, strain BG505); test: native gel or EMSA
VRC01 (human) = test: BLI
VRC01 (human), sequence (light, as listed by the source, chain 2 of 2, other chains not shown): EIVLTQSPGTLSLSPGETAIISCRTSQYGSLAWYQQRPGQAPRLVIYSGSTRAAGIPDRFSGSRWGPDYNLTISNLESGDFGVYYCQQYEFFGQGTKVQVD

| Substance | stoichiometry N [1] | stoichiometry N [2] | relative binding (% of the day 0 response) after 7 days at 37°C in PBS (VRC01 (human)) [%] |
| --- | --- | --- | --- |
| JRFL NFL trimer (Wt, unfixed) (domain or fragment) | 3 |  |  |
| BG505 NFL trimer (Wt, unfixed) (domain or fragment) |  | 3 | 90 |
